Experimental data reported in the nanobody polyreactivity screen of Harvey et al. (2022).

Experiment: yeast display, Sf9 membrane polyspecificity reagent, FACS + sequencing; frameworks hold sequencing errors
In short: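 Polyreactivity labels are assigned by the sorting gate from which each nanobody was recovered. The gates were low and high (top ~1%), set on anti-HA fluorescence for expression and streptavidin fluorescence for reagent binding. Before sorting, galactose-induced (36–48 hours) yeast display cells were stained for 1 hour at 4 °C with 10% biotinylated, detergent-solubilized Sf9 membrane reagent.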
For “QVQLVESGGGLVQAGGSLRLSCAASGFICGYYAMGWYRQAPGKERELVADISRGGNTNYAESVKGRFTISRDNAKNSVYLQMNSLKPEDTAVYYCARYRRGKMDYWGQGTQVTVSS”, the “polyreactivity (PSR sort gate)” value was “high polyreactivity”.
In the case of “QVQLVESGGGLVQAGGSLRLSCAASGSTFFDYAMGWYRQAPGKERELVAAISRSGDTNYADSVKGRFTMSRDNAKNTVYLHMNSLKPEDTAVYYCAKYWAYRRHWVGFYYWGQGTLVTVSS”, the “polyreactivity (PSR sort gate)” value is reported as “low polyreactivity”.
In the case of “QVQLVESGGGLVQAGGSLRLSCAASGRTFTEYAMGWYRQAPGKERELVARISIGDSTYYADSVKGRFTISRDNAKNTVYLQMNSLKPEDTAVYYCNAEYSRSYRYDECYWGQGTQVTVSS”, the “polyreactivity (PSR sort gate)” value is reported as “low polyreactivity”.
For “QVQLVESGGGLVQAGGSLRVSCAASGSSFTYNAMGWYRQAPGKERELVASINSRGGTTYYADSVKGRFTISRDNAKNTVYFQMNSLKPEDTAVYYCATDVYRLGEYDYWGQGTQVTVSS”, the “polyreactivity (PSR sort gate)” value was “low polyreactivity”.
With “QVQLVESGGGLVQAGGSLRLSCAASGSTFSRYAMGLYRQATGKDRELVAAISWRGGRTYYADSVKGRFTISRDNAKNTVYLQMNSLKPEDTAVDYCAGLGDDATSYGYWGHGTQVTVSS” the “polyreactivity (PSR sort gate)” value was “high polyreactivity”.
In the case of “QVQLVESGGGLVQAGGSLRLSCAASGRTFRYYAMGWYRPAPGKERELVATITGSGGSTYYADSVKGRFTISRDNAKNTVYLQMNSLKPEDTAVYYCNARKVRYPYRWYDYWGQGTQVTVSS”, the “polyreactivity (PSR sort gate)” value is reported as “high polyreactivity”.
For “QVQLVESGGGLVQAGGSLRLSCAASGRTLGRNAMGWYRHAPGKERELVARISYSGGRTYYADSVKGRFTISRDNAKNTVYLQMNSLKPEDTAVYYCATLGIVHQYDYWGQGTQVTVSS”, the “polyreactivity (PSR sort gate)” value was “low polyreactivity”.
For “QVQLVESGGGLVQAGGSLRLSCAASGSTSERYDMGWYRQAPGKERELVATITWSGGDTHYADSVKGRFTISRDNAKNTVYLQMNSLKPVDTAVYYCAAEYTFVWGLWYDYWGQGTQVTVSS”, the “polyreactivity (PSR sort gate)” value was “low polyreactivity”.
In the case of “QVQLVESGGGLVQAGGSLRLSCAASGRIFFYNAMGWYRQAPGKERELVATINWSGGSTYYADSVKGRFTISRDYAKNTVYLQMNSLKPEDTAVYYCNALRASTTALWGGYWGQGTQVTVSS”, the “polyreactivity (PSR sort gate)” value is reported as “high polyreactivity”.
For “QVQLVQSGGGLVQAGGSLSLSCAASVFIFYYYDMGWYIQAPGKERELVAAISGRDGSTYYADSVKGRFTISRDNAKNTVYLQMNSLKPEDTAVYYCAAANRSRSIGSQYGYWGQGTQVTVSS”, the “polyreactivity (PSR sort gate)” value was “high polyreactivity”.
In the case of “QVQLVESGGGLVQAGGSLRLSCAASGSIFYGYAMGWYIQAPGKERELVAAISGNGGSTYFADSVKGRFTISRDNAKNTVYLQMNSLKTEDTAVYYCAVEVYHYGYEYDYWGQGTQVTVSS”, the “polyreactivity (PSR sort gate)” value is reported as “high polyreactivity”.
With “QVQLVESGGGLVQAGGSLRLSCAASGRIFVDNAMGWYRQAPGKERELVAAITGGGSTYADSVKGRFTISRDNAKNTVYLQMNSLKPEDTAVYYCAADLWSVPFTVYTFGIFYYWGQGTQVTVSS” the “polyreactivity (PSR sort gate)” value was “low polyreactivity”.
With “PVQLVESGGGLVQAGGSHRLSCAASGITFGVYPMGWYRQAAGKERELVAAISRRGASTYYADSVKGRFTISRDKAKNSVYLQMNSLKPEDTAVYYCAAYLARRQYDYWGQGTQVTVSS” the “polyreactivity (PSR sort gate)” value was “high polyreactivity”.
With “QVQLVESGGGLVQTGGSLRLSCAASGSTFYLYTMGWYRQAPGKERELVAAISGRDGSTYYADSVKGRFTISRDNAKNTVYLQMNSLKPEDTAVYYCAADPGYTYVHVTYYYWGQGTQVTVSS” the “polyreactivity (PSR sort gate)” value was “low polyreactivity”.
For “QVQLVESGGGLVQAGASLRLSCAASGRTLKVYAMGWYRQAPGKERELDAAINNGGSTNYADSVKGRFTISRDNAKNTVYLQMNSLKPEDTAVYYCNAVYYARYRKYTYYYWGQGTQVTVSS”, the “polyreactivity (PSR sort gate)” value was “high polyreactivity”.
For “QVQLVESGGGLVQAGGSLRLSCDASGSTFGIYAMGCYRQAPGKERELVAANSRSGDSTYYADSVKGRFTISRDNAKNTVDLQMNSLKPEDTAVYYCAADSYRLRYWAVTTHRVQYDYWGQGTQVTVSS”, the “polyreactivity (PSR sort gate)” value was “low polyreactivity”.
In the case of “QVQLVESGGGLVQAGGSLRLSCAASGFTFGNYAMGWYRQAQGKERELVDAISGSGGSTYYADSVKGRFTISRYNAKNTVYLQMNSLKPEDTAVYYCAARYWVTYWPDYYYWGQGTQVTVPS”, the “polyreactivity (PSR sort gate)” value is reported as “high polyreactivity”.
With “QVQLVESGGGLVQAGGSLRLSCAASGRTISFNTMAWYRQAPGKERDLVAGIERGGSTNYADSVKVRFTISRDNAKNTVYFQMNSLKPEDTAVYYCAARNLRYRYRNYDYWGQGTQVTVSS” the “polyreactivity (PSR sort gate)” value was “high polyreactivity”.
In the case of “QEQLQESGGGLVQAGGSLRLSCAASGSISQAWYMGWYRQAPGKERELVAAINVGAITYYADSVKGRFSISRDNAKNTVYLPMNSLTPEDTAVYYCAVDQYSEAYYDYWGQGTQATVSS”, the “polyreactivity (PSR sort gate)” value is reported as “high polyreactivity”.
With “QVQLVESGGGLVQAGGSLRLSCAASGRIFITKAMGWYRQAPGKERELVAAIRRRGGNTYYADSVKGRFTISRDNAKNTVYLQMNSLKPEDTAVYYCAVYPRPYKYNYWGQGTQVSVSS” the “polyreactivity (PSR sort gate)” value was “high polyreactivity”.
For “QVQLVESGGGLVQAGGSLRVSCAASGSTFYIYAMGWSRQAPGKERELVARISGSGGSTYYADSVKGRFTISRDYAKNTVYLLMNSLKPEDTAVYYCAADDIYKYYQYYAFPYSRYDYWGQGTQLTVSS”, the “polyreactivity (PSR sort gate)” value was “low polyreactivity”.
With “QVQLVESGGGLVQAGGSLRLSCAASGRIFVQYDMGWYRQAHGKERELVAAITGGGGSTYYADSVKGRFTISRDNAKNTVYLQMNSLKPEDTAVYYCAADQDVYDFTGYDYWGQGTQVTVSS” the “polyreactivity (PSR sort gate)” value was “low polyreactivity”.
With “QVQLVESRGGLVQAGGSLRLICAASGFILDTSAMGWYRQAPGKERALVAAISASGSSTYYADSVKGRFTISRDNAKNTLYLQMNSLKPEDTAVNYCAAKDTGYGYGFPRLDYWGQGTQVNVSS” the “polyreactivity (PSR sort gate)” value was “low polyreactivity”.
With “QVQLVESGGGLVKAGGSLRLSCAASGRIFYNFSMGWSRQAHGKERELVAAISGSGGSTYYADSVKGRFTISRDNAKNTVYLQMNSLKPEDTAVYYCSTSGPQYYSRNFDYWGQGTQVTVSS” the “polyreactivity (PSR sort gate)” value was “low polyreactivity”.
In the case of “QVQHVESGGGLFQAGGSLRLSCAASGITFEYYAMGWYRQAPGKERELVAAISGDGSTYYADSVKGRFTISRDNAKNTVYLQMNSLKPEDTAVYYCAAVYYRGFLYYRYYYWGQGTQVTVSS”, the “polyreactivity (PSR sort gate)” value is reported as “high polyreactivity”.
With “QVQLVESGGGLVQAGGSLRLSCAASGRIFVYNAMGWYLQAPGKERELVANIDYSGGSTYYADSVKGRFTISRDNAKNTVYLQMNSLKPEDTAVYYCAADGGSTAFDYWGHGTQVTVSS” the “polyreactivity (PSR sort gate)” value was “low polyreactivity”.
In the case of “QVQLVESGGGLVQAGGSLRLSCAASGLTFAVYAMGVYRQAPGKEREVVAAINWSGGSTSYADSVKGRFTISRDNAKNTVYLQMNSLKPEDTAVYYCAAVPGSYSYWRVWYGYDYWGQGTQVTVSS”, the “polyreactivity (PSR sort gate)” value is reported as “high polyreactivity”.
With “QVQLVESGGGLVQAGGSLRLSCAASGSIFYENTMGWYRQAPGKEREFVAAISRSGGSTYYADSEKGRFTISRDNAKNTVYLQMNSLKPEDTAVYYCAAKSRRYHHEYYYWGQGTQVTVSS” the “polyreactivity (PSR sort gate)” value was “high polyreactivity”.
For “QVQLVESGGGLVQAGGSLRLSCAASGSIFRAYAMGWYRQAPGKERELVAAINWTDGSTYYADSVKGRFTISRDKAKNTVYLQMNSLKPEDTAVYYCAKDSIARHNYWGQGTQVTVSS”, the “polyreactivity (PSR sort gate)” value was “low polyreactivity”.
For “QVQLQESGGGLVQAGGSLSLSCAASGSNFVSVTMGWYRQAHGKERELVASIGRGSTTNHADSVKGRFTISRDNAKNIVYLLMNSLKPEDTAVYYCAALESYGKYHGYWGQGTQVTVSS”, the “polyreactivity (PSR sort gate)” value was “low polyreactivity”.
With “QVQLVESGGGLVQAGGSLRLSCAASGRTFYYNTMGWYRQAPGKERELVASITSGSSTYYADSVKGRFTISRDNAKNTVYLQMNSLKPEDTEVYYCAVYRRYSVKYHYGYWGQGTQVTVSS” the “polyreactivity (PSR sort gate)” value was “high polyreactivity”.
With “QVQLVESGGGLVQAGGSLRLSCAASGFTFRAYAMGWYRQAPGKERELVAAISTGGGSTYYADSVKGRFTISRDNEKNTVYLQMNSLKPEDTAVYYCNALPQRRYYYWGQGTQVTVSS” the “polyreactivity (PSR sort gate)” value was “high polyreactivity”.
With “QVQLGESGGGLVQAGGSLRLSCAASGRIFWGYAMGWYRQAPGKERELVAAITRGTRTNYADSVKGRFTISRDNAKNTVYLQMNSLKPEDTAVYYCAADYRDSYLFYYWGQGTQVTVSS” the “polyreactivity (PSR sort gate)” value was “high polyreactivity”.
In the case of “QVQLQESGGGLVQAGGSLRLGCAASGNISDAGYMGWYRQAPGKEREFVAAIAAGSNTNYADSVKGRFTISRDNAKNTVYLQMNSLKPEDTAVFYCAVASYARVQYQYWGQGTQVTVNS”, the “polyreactivity (PSR sort gate)” value is reported as “low polyreactivity”.
With “QVQLVSGGGLVQAGGSLRLSCAASGRIFVSYAMGWYRQAPGKERELVADISSDGSTNYADSVKGRFTISRDNAKNTVYLQMNSLKPEDTAVYYCAVEVVRVYRYDYWGQGTQVTVSS” the “polyreactivity (PSR sort gate)” value was “low polyreactivity”.
In the case of “QVQLEESGGGLVQAGGSLRLSCAASGSIFVRNAMGWYRQAPGKERELVASISRRGGSTYYADSVKGRFTISRDNAKNTVYLQMISLKPEDTAVYYCAARNQIVPYGTYNYWGQGTQVTVSS”, the “polyreactivity (PSR sort gate)” value is reported as “high polyreactivity”.
In the case of “QVQLVESGAGLVQAGGSLRLSCAASGSTFGINAMGWYRQAPGKERELVASIRGDGGSTYYADSVKGRFTISRDNEKNTVSLQMNSLKPEDTAVYYCNKDDFSSPGENRYHSDPYDSWGQGTQVTVSS”, the “polyreactivity (PSR sort gate)” value is reported as “low polyreactivity”.
In the case of “QVQLVESGGGLVQAGGSLRLSCAASGYTFRYYAMGWYRQAPGKEREFVAAITWSDSGTYYADSVKGRFTISRDNAKNTVYLQMNSLKPEDTAVYYCAAERYLSFDRYLYEYYYWGQGTQVTVSS”, the “polyreactivity (PSR sort gate)” value is reported as “low polyreactivity”.
With “QVQLVESGGGLVQAGGSLRLSCAASGSTFGGNAMGWYRQAPGKERELVAAITVGGDSTYYADSVKGRFTISRDNAKNTVYLQMNSLKPEVTAVYYCAAGPWYKFYDWRPWFSYDYWGQGTQVTVSS” the “polyreactivity (PSR sort gate)” value was “low polyreactivity”.
With “QVQLVESGAGLVQAGGSLGLSCAPSGRIFGRYVRGWYRQAPGKERELVATITSRGGTTYYADSVKGRFTISRDNAKNTVFLQMISLKPEDTAVYYCAVRGLIRFSKYGYWGQGTQVTVSS” the “polyreactivity (PSR sort gate)” value was “high polyreactivity”.
With “QVQLVESGGGLVQAGGSLRLSCAASVRTVDSYTMGWYRQAPGKERELVAAIRSSGGRTYADSVKGRFTISRDNAKNTVYLQMNSLKPEDTAVYYCAAARSYWAKYYYWGQGTQVTVSS” the “polyreactivity (PSR sort gate)” value was “high polyreactivity”.
In the case of “QVQLLESGGGLVQAGGSLRLSCAASGSIFVGYAMGWYRPAPGKERELVASITTPGGSTHYADSVKGRFTISRDNAKNTVYLQMNSLKPEDTAVYYCAADSLSNGVLQYLPGYDYWGQGTQVTVSS”, the “polyreactivity (PSR sort gate)” value is reported as “low polyreactivity”.
In the case of “QVQLVESGGGLVQAGGSLRLSCAASGRIFYRYAMGWYRQAPGKERELVAAITGSVGSTYYADSVKGRFTISRDNAKNTVYLQMNSLKPEDTAVYYCAREYHGDSRRYDYWGQGTQVTVSS”, the “polyreactivity (PSR sort gate)” value is reported as “high polyreactivity”.
